Here are results for 3 substances from PMC6137056.

Data set [1] relates to UVI31+ (wild type) (Chlamydomonas reinhardtii), PDB:5ZB6_1. In words: ITC. To be noted: ITC: 10 mM Tris-HCl pH 7.5, 50 mM NaCl, 5% glycerol, 5 mM MgCl2, 0.1 mM EDTA, EMSA: 10 mM Na-phosphate pH 7.5, 10 mM NaCl, 1 mM MgCl2, 37 C, 5 min, 1 uM …; for Ka (M-1 (unit not given)): 5 mM MgCl2, 25 C. (In general: A gel shift assay detects complexes by their altered migration in electrophoresis.)

Data set [2] shares this test system. Briefly: EMSA. The following applies: ITC: 10 mM Tris-HCl pH 7.5, 50 mM NaCl, 5% glycerol, 5 mM MgCl2, 0.1 mM EDTA, 25 C, EMSA: 10 mM Na-phosphate pH 7.5, 10 mM NaCl, 1 mM MgCl2, 37 C, 5 min, 1 uM ….

On to “CGCGAATTCGCG (double strand) [12-mer self-complementary ds-DNA]”, for which the Ka (M-1 (unit not given)) in data set [1] (K1, sequential binding model) worked out at 3.05e+06; in data set [1] (K2, sequential binding model), 11400. For the same substance, the Kd in data set [1] (apparent Kd, two sets of sites, 5 mM MgCl2, 50 mM NaCl, pH 7.5, 25 C) turned out to be 5.36 µM.
In turn, 50-bp dsDNA (EMSA) registered a Kd in data set [2] of 1.1 µM.
Consider ssDNA (EMSA, 50-mer), for which the Kd in data set [2] (1 mM MgCl2, partial loss of ssDNA by cleavage) amounted to 1.4 µM.
